Columns and labels:
HL-60 = settings: comparator agents; cited from earlier work
U937 = settings: comparator agents; cited from earlier work
THP-1 = settings: comparator agents; cited from earlier work
human CD300f = human CD300f (human, UniProt Q8TDQ1 20-290); test: cell-based or functional assay
HL-60 cells = test: Internalisation assay by flow cytometry; format: cell-based
Method: DCR-2 (IgG1), and as an isotype control, the anti-tetanus toxoid mAb, CMRF-81 (IgG1) which were both produced, purified and directly conjugated to phycoerythrin (PE) in house (Abadir et al. Mol Oncol. 2019; 13(10):2107-2120). Cells were incubated with DCR-2-PE or CMRF-81-PE (10 μg/ml) on ice for 20 min, washed to remove unbound mAb then incubated at 37° C./5% CO2 to allow internalisation for the indicated times.
After incubation, residual mAb remaining on the cell surface was detected with a secondary goat anti-mouse (GAM) IgG-AF488 antibody. Cells were fixed in 1% paraformaldehyde/PBS for flow cytometry analysis. The surface and total relative Mean Fluorescent Index (MFI) was calculated as the (MFI of binding antibody at time point−MFI of isotype control at time point) at 37° C./(MFI of binding antibody at time point−MFI of isotype control at time point) at 0° C. The percent internalised was assessed by 100−(relative MFI surface staining/relative MFI total staining). In immunofluorescent microscopy experiments cells were stained with DCR-2 then air-dried and fixed with 4% paraformaldehyde or incubated for 37° C. for 30 minutes then fixed. Rehydration was performed using 1% BSA/PBS prior to staining with GAM IgG-AF488 antibody and 18 μM DAPI (ThermoFisher).

AML = test: NOS/SCID mouse model of AML; format: in vivo; settings: unconjugated antibody alone
dendritic cells = test: Activation marker expression on dendritic cells after LPS; format: cell-based, human; settings: HLA-DR, CD11c, CD80, CD83; 200 pmol
Method: The activity of DCR-2PBD on the upregulation of activation markers on DC was measured by incubating whole PBMC with DCR-2PBD or no antibody for […] before washing, followed by 12 hours of LPS stimulation. Control DC were not exposed to DCR-2PBD or LPS. Myeloid DC were gated out by excluding dead cells, Lin^+(CD3, CD20, CD19, CD56, CD14), then gating on HLA-DR^+ and CD11c^+ cells. The activation markers CD80 and CD83 were assessed via flow cytometry. The changes on activation were determined by comparing activated DC incubated with or without DCR-2PBD compared to inactivated DC.
PBMC were incubated in complete RPMI media with or without DCR-2-PBD (200 pmol). After 12 hours, washed cells were incubated for a further 12 hours with or without LPS then phenotyped for the expression of activation markers on DC populations. MoDC were derived from CD14+ monocytes as described previously (Fromm et al. J Leukoc Biol. 2020; 107(2):323-339). DCR-2-PBD or isotype-PBD (200 pmol) were added for 72 hours prior to enumeration of live cells by flow cytometry.

Chain of human CD300f (Q8TDQ1 20-290): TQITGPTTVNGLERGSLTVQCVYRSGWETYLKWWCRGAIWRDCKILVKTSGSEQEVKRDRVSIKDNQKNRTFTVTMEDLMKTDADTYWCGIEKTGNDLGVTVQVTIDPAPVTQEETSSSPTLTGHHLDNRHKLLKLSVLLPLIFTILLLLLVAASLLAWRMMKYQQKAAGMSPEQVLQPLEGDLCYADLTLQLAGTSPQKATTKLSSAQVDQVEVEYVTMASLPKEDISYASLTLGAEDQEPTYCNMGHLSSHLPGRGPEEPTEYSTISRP

In the case of `CS(=O)(=O)OCCCCOS(C)(=O)=O` [Busulfan], the IC50 (HL-60) is given as 354000 nM.

In the case of “Gemtuzumab-Ozogamicin: approved AML therapeutic which targets CD33”, the IC50 (HL-60) is given as 0.0133 nM, the IC50 (U937) is given as 0.127 nM and the IC50 (THP-1) is given as 0.04 nM.

For `COc1cccc2c1C(=O)c1c(O)c3c(c(O)c1C2=O)C[C@@](O)(C(=O)CO)C[C@@H]3O[C@H]1C[C@H](N)[C@H](O)[C@H](C)O1` [Doxorubicin], the IC50 (HL-60) is given as 345000 nM.

B1: DCR-2-pyrrolobenzodiazepine (PBD) immunoconjugate (antibody, V domains shown)
VH: MESGGGLVQPGGPLKLSCAASGFGFSGSWMSWVRQAPGKGLEWIGQINPDSSTINYTPSLKDKFIISRDNAKNTLYLQINKVRSEDTALYYCARRGFFEGYSAWFAYW
VL: ILMTQTPKFLLVSAGDRVTITCKASQSVSNDVAWYQQKPGQSPSLLIYYASNRNTGVPDRFTGSGYETDFTFTISTVQAEDLAVYFCQQDYTSPWTFGGG
modifications: PBD dimer linked through the Cathepsin B-cleavable linker MA-PEG4-VA-PBD to native cysteines (reduced interchain disulfides); drug to antibody molar ratio 3.3; positions not given
With B1 the “IC50 (pM), cytotoxicity on HL-60 cells” value (human CD300f) was 5.45 pM, the “IC50 (pM), cytotoxicity on THP-1 cells” value (human CD300f) was 29.9 pM and the “IC50 (pM), cytotoxicity on U937 cells” value (human CD300f) was 6.74 pM.

B2: DCR-2: murine IgG1 kappa monoclonal antibody binding the extracellular domain of CD300f; hybridoma CBA20160029 (antibody, V domains shown)
VH: MESGGGLVQPGGPLKLSCAASGFGFSGSWMSWVRQAPGKGLEWIGQINPDSSTINYTPSLKDKFIISRDNAKNTLYLQINKVRSEDTALYYCARRGFFEGYSAWFAYW
VL: ILMTQTPKFLLVSAGDRVTITCKASQSVSNDVAWYQQKPGQSPSLLIYYASNRNTGVPDRFTGSGYETDFTFTISTVQAEDLAVYFCQQDYTSPWTFGGG
For B2, the Internalisation (HL-60 cells; 30 minutes) was “significant”, the Internalisation (HL-60 cells; 180 minutes) was “greater than 50%” and the “survival and disease burden” value (AML) was “does not prolong survival or reduce disease burden”. For the same molecule, the “up-regulation of activation markers on dendritic cells after LPS” value (dendritic cells) was “does not prevent upregulation of activation markers CD80 and CD83”.
